In patent publication US20050064507A1, “Determining kinase specificity” (priority 2003, published 2005):
Square brackets hold non-standard residues; d marks the D form. Ends that are not written are not given here. pS = N[C@@H](COP(=O)(O)O)C(=O)O

tested on: pPKC antibody; assay: ELISA binding of pPKC antibody to synthesized SHP-1 phosphopeptides; details: ELISA
Experimental: Tests were conducted to test whether SHP-1 is phosphorylated in vivo at Ser-591, Ser-26 or Ser-300. To do so, a strategy was employed that used a commercially available antibody from Cell Signaling Technology that is referred to as a phospho-PKC motif antibody (designated herein as pPKC Ab). (See U.S. Pat. No. 6,441,140 and Cell Signaling Technology Datasheet for ‘Phospho-(Ser) PKC Substrate Antibody’). […] Such antibodies can be used for detection of unknown proteins that contain phosphorylation sites conforming to the motif to which they bind. For example, phosphorylated proteins can be detected on two-dimensional gels with the pPKC Ab and the identity of these phosphorylated proteins can be confirmed by the observed molecular weight, isoelectric point and other information such as the predictive algorithms provided herein. Similarly, such detected proteins can be enriched by classical biochemical separations, and when sufficiently enriched, can be identified by mass spectrometry (Astoul E et al. 2003. J Biol Chem 278:9267-9275).
Because these studies of SHP-1 were an early precedent-setting study, a rigorous approach was adopted in determining whether pPKC antibody binding included one or more of the three predicted SHP-1 sites. Phosphorylated peptides corresponding to the three best predicted PKC sites were synthesized (Table 7) in microtiter wells using a method of prior art described in U.S. Pat. No. 6,031,074. In addition, phosphorylated peptides corresponding to others sites in SHP-1 that match part of the motif detected by the pPKC antibody were also synthesized. Those phosphorylated peptides were then analyzed for reactivity with the pPKC antibody in an ELISA assay.
Among the phosphorylated peptides corresponding to sites in SHP-1, the best binding of pPKC antibody was detected with the phosphorylated peptide corresponding to Ser-591 (Table 7; […]).

| Substance | binding of pPKC antibody to phosphorylated peptide |
| --- | --- |
| ADKEKSKG-pS-LKRK---- (ADKEKSKG[pS]LKRK) [SEQ ID NO 298] | best binding |
| HGSFLARP-pS-RKNQGDFS (HGSFLARP[pS]RKNQGDFS) [SEQ ID NO 300] | distinctly lower but readily detectable binding |
| LKGRGVHG-pS-FLARPSRK (LKGRGVHG[pS]FLARPSRK) [SEQ ID NO 299] | distinctly lower but readily detectable binding |

same assay, conditions: ELISA on phosphopeptide; normalized to the value for the Ser-591 peptide

| Binding of pPKC antibody | Substance |
| --- | --- |
| 18 | 289 (MKNAHAKA[pS]RTSSKHKE) [compound 289] |
| 13 | 290 (RVILQGRD[pS]NIPGSDYI) [compound 290] |
| 12 | 291 (AHAKASRT[pS]SKHKEDVY) [compound 291] |
| 11 | 292 (KKKLEVLQ[pS]QKGQESEY) [compound 292] |
| 9 | 293 (PSEPGGVL[pS]FLDQINQR) [compound 293] |
| 7 | 294 (HAKASRTS[pS]KHKEDVYE) [compound 294] |
| 5 | 295 (PWTFLVRE[pS]LSQPGDFV) [compound 295] |
| 3 | 296 (KNQGDFSL[pS]VRVGDQVT) [compound 296] |
| 0 | 297 (PLNCSDPT[pS]ERWYHGHM) [compound 297] |
| 100 | 298 (ADKEKSKG[pS]LKRK) [compound 298] |
| 54 | 299 (LKGRGVHG[pS]FLARPSRK) [compound 299] |
| 39 | 300 (HGSFLARP[pS]RKNQGDFS) [compound 300] |

target: T1, PKC-theta (Homo sapiens, UniProt Q04759); assay: In vitro kinase assay: peptide phosphorylation by PKC-theta; assay type: biochemical; details: not given
T1 construct: His-tag; made in house; host or cells: baculovirus-infected Sf9 cells
T1 sequence (Q04759 whole entry): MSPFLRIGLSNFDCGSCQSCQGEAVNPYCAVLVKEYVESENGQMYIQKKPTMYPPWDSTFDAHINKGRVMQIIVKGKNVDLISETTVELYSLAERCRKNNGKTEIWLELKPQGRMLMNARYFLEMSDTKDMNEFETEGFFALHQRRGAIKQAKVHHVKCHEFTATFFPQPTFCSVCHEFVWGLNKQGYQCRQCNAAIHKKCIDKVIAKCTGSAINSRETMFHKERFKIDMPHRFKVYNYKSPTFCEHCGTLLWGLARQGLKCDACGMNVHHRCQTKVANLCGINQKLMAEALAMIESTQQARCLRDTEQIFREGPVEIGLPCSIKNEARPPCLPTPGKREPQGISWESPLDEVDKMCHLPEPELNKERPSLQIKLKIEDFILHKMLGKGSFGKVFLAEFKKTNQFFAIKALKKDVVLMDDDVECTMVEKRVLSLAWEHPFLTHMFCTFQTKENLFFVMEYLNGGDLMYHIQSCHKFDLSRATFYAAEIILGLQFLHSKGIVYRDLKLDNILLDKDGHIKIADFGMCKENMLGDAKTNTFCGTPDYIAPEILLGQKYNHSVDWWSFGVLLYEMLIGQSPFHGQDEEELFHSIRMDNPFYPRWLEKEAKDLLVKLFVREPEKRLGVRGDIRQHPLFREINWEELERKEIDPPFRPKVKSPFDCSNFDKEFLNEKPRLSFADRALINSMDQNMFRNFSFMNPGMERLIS
Description: A second strategy for validation of the PSSM derived from the methods described herein is to identify sequences represented in the human proteome that have low percentiles derived from the PSSM, to synthesize peptides that have those sequences, and test the efficiency of phosphorylation of those peptides by the kinase of interest. […] The results are shown for individual peptides (FIG. 11, panel A) or for groups of peptides aggregated by percentile prediction (FIG. 11, panel B). As with the testing described above with prospectively chosen peptides, the percentile scores are highly predictive of phosphorylation by the relevant kinase.
An example of the purification procedure used for production of active kinase is as follows. A preparation of PKC-theta was prepared using a Gateway expression construct containing PKC-theta that was expressed in baculovirus, which were used to infect Sf9 cells. The cell pellet from a liter of baculovirus-infected Sf9 cells was resuspended in 20 volumes (60 ml) of extraction buffer (20 mM Na phosphate buffer pH 7.5, 500 mM NaCl, 5 mM pyrophosphate, 10% glycerol, 10 mM imidazole, 1 mM PMSF), sonicated twice for one minute (1 cm tip at 60% power and 50% duty cycle) and cell disruption was verified microscopically. The sample was adjusted to five mM MgCl2 and treated with one U benzonase/ml for an additional 20 minute on ice. The sample was clarified by centrifugation in a JA-20 rotor at 15K for 30 min at 4° C., filtered through a […] filter and applied at 0.5 ml/min to a one ml chelating sepharose column previously charged with nickel and equilibrated with extraction buffer. The column was washed with extraction buffer at one ml/min to baseline and eluted in a 20 ml gradient (20-500 mM imidazole in extraction buffer) into one ml fractions that were analyzed by SDS-PAGE. Fractions with the highest concentration of protein were pooled, were dialyzed twice against one liter of 20 mM Na PO4 pH 7.5, 50 mM NaCl buffer. The kinase pool was dialyzed twice against 20 mM HEPES pH 7.4, 100 mM NaCl, 2 mM EDTA, 5 mM DTT, 0.05% Triton-X-100. After dialysis, the sample was adjusted to 50% glycerol and quick-frozen in a dry ice/ethanol bath.
The conditions of the kinase assay and the amount of active kinase used varied with the kinase and with the accuracy needed. For a typical experiment, 5-20 ng of kinase was used per well and each peptide pool was assayed in duplicate wells. Note that the absolute amount of kinase used was not usually a critical parameter, because the desired information related to specificity of the kinase not its absolute activity, and robustness of the assay depends on comparisons of the same amount of kinase on different peptides. The combination of kinase concentration and assay duration was modified to assure that the stoichiometry of peptide phosphorylation never exceeded 5%. The choice of kinase buffer depended on the kinase being analyzed. For studies of PKC, 100 mM HEPES, 0.05% Triton-X100, 1 mM CaCl2, 20 mM MgCl2, 0.2 mg/ml phosphatidyl serine (Avanti Polar Lipids), PMA 100 ng/ml was typically used. The lipid stock was prepared by transferring 3 mg phosphatidyl serine into iced mixture of 450 μl water plus 50 μl of 10% Triton-X100, sonicating 10 times on ice for 1 sec each.
The kinase reaction mixture was assembled by sequential addition to a tube held on ice of: 5 μl peptide (100 μM for final concentration of 10 μM), 15 μl of kinase (typically 5 ng/well, in appropriate kinase buffer), 30 μl of ATP (1 uCi/well of ^32P-gamma ATP in a stock of 167 μM cold ATP in the kinase buffer; for final concentration for 100 μM ATP). The mixture was rapidly warmed to desired reaction temperature (30° C. for PKC) and incubated for the desired duration (usually 10 minutes). The kinase assay was terminated by transfer to 4° C. water batch, and rapid addition of an equal volume (50 μl) of stop solution [0.1M ATP+0.1M EDTA in water, pH 8]. […]

| in vitro phosphorylation by PKC | Substance |
| --- | --- |
| phosphorylated by PKC | 209 (DKEKSKGSLKRK) [compound 209] |

same assay, conditions: normalized to best substrate

| Measured in vitro phosphorylation by PKC-theta | Substance |
| --- | --- |
| 34% | 194 (KRRKRKSLQRHK) [compound 194] |
| 33% | 195 (PGSSHRKTKK) [compound 195] |
| 32% | 196 (RWKRRRSYSREH) [compound 196] |
| 32% | 197 (ILRPSKSVKLRS) [compound 197] |
| 28% | 198 (RRRRPTKSKGSK) [compound 198] |
| 27% | 199 (RGRRSRSRLRRR) [compound 199] |
| 26% | 200 (EQQRRALSFRQ) [compound 200] |
| 25% | 201 (TQDRRKSLFKKI) [compound 201] |
| 24% | 202 (VMKRKFSLRAAE) [compound 202] |
| 24% | 203 (VRRSKKSKKKES) [compound 203] |
| 22% | 204 (RFSRRSSSWRIL) [compound 204] |
| 22% | 205 (EGRRSRSRRYSG) [compound 205] |
| 19% | 206 (KSSRNSTSVKKK) [compound 206] |
| 18% | 207 (SFRGHITRKKLK) [compound 207] |
| 17% | 208 (VSRPRKSRKRVD) [compound 208] |
| 17% | 209 (DKEKSKGSLKRK) [compound 209] |
| 16% | 210 (PLRRRESMHVEQ) [compound 210] |
| 16% | 211 (RSRSYSRSRSR) [compound 211] |
| 13% | 212 (VSRGSSLKILSK) [compound 212] |
| 13% | 213 (RHSRSRSRHRLS) [compound 213] |
| 13% | 214 (SRRRSPSYSRHS) [compound 214] |
| 12% | 215 (TKKRSKSRSKER) [compound 215] |
| 11% | 216 (SCRTSSRKRAGK) [compound 216] |

Continued, substance first:

| Substance | Measured in vitro phosphorylation by PKC-theta |
| --- | --- |
| 168 (AMSRSASKRRSR) [compound 168] | 100% |
| 169 (RTRSRRLTFRK) [compound 169] | 100% |
| 170 (VKLRRSKKRTKR) [compound 170] | 98% |
| 171 (RRGRRSTKKRRR) [compound 171] | 92% |
| 172 (VRRRRSQRISQR) [compound 172] | 86% |
| 173 (RSGRRRGSQKS) [compound 173] | 85% |
| 174 (KKERRRNSINRN) [compound 174] | 83% |
| 175 (KKRRTKSSRRGV) [compound 175] | 80% |
| 176 (RRERSRSRRKQ) [compound 176] | 66% |
| 177 (RRRRRRSRTFSR) [compound 177] | 66% |
| 178 (RRRRSRTFSRS) [compound 178] | 65% |
| 179 (KRHYRKSVRSRS) [compound 179] | 65% |
| 180 (FLRRSSSRRNRS) [compound 180] | 65% |
| 181 (TGERKRKSVRG) [compound 181] | 62% |
| 182 (TKKKRGSYRGGS) [compound 182] | 61% |
| 183 (ARRSKRSRRRET) [compound 183] | 55% |
| 184 (FRASSRSTTK) [compound 184] | 54% |
| 185 (KKFKRRLSLTLR) [compound 185] | 51% |
| 186 (DFRRRRSFRRIA) [compound 186] | 50% |
| 187 (LRRKSSTRHIHA) [compound 187] | 48% |
| 188 (ERGRRGSKKGSI) [compound 188] | 44% |
| 189 (GRRRRSRSKVK) [compound 189] | 43% |
| 190 (RRRRHTMDKDSR) [compound 190] | 40% |
| 191 (HKRNSVRLVIR) [compound 191] | 38% |
| 192 (GNRKGKSKKWRQ) [compound 192] | 35% |
| 193 (PLRKSSLKKGGR) [compound 193] | 35% |
